Drawing on US20030220250A1, this text covers Tie-2 phosphorylation in HUVECs after 48 h transwell co-culture (Tie-2 immunoprecipitation, anti-phosphotyrosine Western blot, densitometry), versus co-culture with pcDNA-transfected HT29 cells for one substance.

For the experiment, the target named is Tie-2 tyrosine kinase receptor on HUVECs (human) (UniProt Q02763). Nature of the experiment: cell-based or functional assay.
UniProt Q02763, sequence (Q02763 23-1124): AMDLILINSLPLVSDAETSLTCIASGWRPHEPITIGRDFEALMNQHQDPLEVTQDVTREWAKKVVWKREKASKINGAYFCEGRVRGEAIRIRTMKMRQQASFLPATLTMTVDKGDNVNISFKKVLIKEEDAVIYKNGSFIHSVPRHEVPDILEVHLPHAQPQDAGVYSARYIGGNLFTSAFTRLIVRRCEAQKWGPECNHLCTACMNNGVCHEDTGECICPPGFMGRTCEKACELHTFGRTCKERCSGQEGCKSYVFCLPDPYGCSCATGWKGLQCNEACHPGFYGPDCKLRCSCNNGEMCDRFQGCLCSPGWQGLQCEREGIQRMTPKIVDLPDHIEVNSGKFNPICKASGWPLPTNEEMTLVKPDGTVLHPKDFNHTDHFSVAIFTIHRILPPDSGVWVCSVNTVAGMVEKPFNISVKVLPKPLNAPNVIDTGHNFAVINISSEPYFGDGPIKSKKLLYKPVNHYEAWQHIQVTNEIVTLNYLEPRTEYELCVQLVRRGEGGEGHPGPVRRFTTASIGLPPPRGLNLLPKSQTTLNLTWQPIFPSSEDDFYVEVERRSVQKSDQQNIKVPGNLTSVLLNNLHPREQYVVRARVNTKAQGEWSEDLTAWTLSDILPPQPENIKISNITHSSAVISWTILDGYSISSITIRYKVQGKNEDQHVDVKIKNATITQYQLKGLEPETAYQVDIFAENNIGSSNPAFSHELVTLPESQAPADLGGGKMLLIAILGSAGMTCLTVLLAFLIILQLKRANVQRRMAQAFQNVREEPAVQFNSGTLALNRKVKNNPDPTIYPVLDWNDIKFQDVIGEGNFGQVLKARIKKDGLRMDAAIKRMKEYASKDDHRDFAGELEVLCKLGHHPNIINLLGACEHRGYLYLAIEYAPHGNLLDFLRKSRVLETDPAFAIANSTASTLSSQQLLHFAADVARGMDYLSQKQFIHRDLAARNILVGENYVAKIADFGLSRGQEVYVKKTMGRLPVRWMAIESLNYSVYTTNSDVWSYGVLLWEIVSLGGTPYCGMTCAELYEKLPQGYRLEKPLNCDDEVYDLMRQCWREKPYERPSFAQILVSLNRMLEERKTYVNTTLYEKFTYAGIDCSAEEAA

The substance “Angiopoietin-1 secreted by HT29 human colon cancer cells stably transfected with full-length Ang-1 cDNA in pcDNA3.1 (from UniProt Q15389 16-498) (ligand)” returned a Tie-2 phosphorylation in HUVECs after 48 h transwell co-culture (Tie-2 immunoprecipitation, anti-phosphotyrosine Western blot, densitometry), versus co-culture with pcDNA-transfected HT29 cells of 2 fold.
